Patent US20220204610A1, “PROTEIN BINDERS FOR IRHOM2” (NEW YORK SOCIETY FOR THE RELIEF OF THE RUPTURED AND …, priority 2019, published 2022)

Tested on: LPS-induced release of endogenous TNFα from human THP-1 macrophage cells
Experiment: TNFα release (shedding) assay, functional screen of hybridoma supernatants
Assay type: cell-based
Conditions: supernatants of monoclonal 4H8 sub-clones; assay as in Example 5
From the text: After 14 days of culture, supernatants of hybridoma cells were collected and—instead of being selected for iRhom2 binding antibodies—were subjected to an ELISA-based functional screen for iRhom2 activity-neutralizing antibodies. Since the crucial role of iRhom2 in TACE-mediated release of tumor necrosis factor alpha (TNFα) from macrophages is very well established (McIlwein et al., 2012, Adrain et al., 2012, Siggs et al., 2012), the human TNF-alpha DuoSet ELISA (R&D Systems, USA) was employed to compare the lipopolysaccharide (LPS)-induced release of endogenous TNFα from human THP-1 macrophage cells in the presence and absence of all 5280 peptide immunization-derived hybridoma supernatants.
In brief, on day 1, Nunc black MaxiSorp® 96-well plates (Thermo Fisher Scientific, USA) were coated overnight with 100 μl per well of mouse anti-human TNFα capture antibody (provided as part of the DuoSet ELISA kit) at 4 μg/m1 TBS at 4° C. […] Using an infinite M1000 PRO (Tecan Group, Switzerland) microplate reader, the fluorescence of each well was collected at an excitation wavelength of 435 nm and an emission wavelength of 555 nm.
In brief, cells of the hybridoma population 4H8 were counted and the dilution factor to end up with an average of two cells per well of 96-well plates was calculated. […]

B1: 4H8-E3: Mouse IgM monoclonal antibody against the human iRhom2 juxtamembrane domain adjacent to TMD1; HC VD SEQ ID NO 33, LC VD SEQ ID NO 40 (antibody, V domains shown)
VH: EVQLQQSGPELVKPGASVKISCKASGYTFTDYYMNWVKQSHGKSLEWIGDINPNNGGTSYNQKFKGKATLTVDKSSNTAYMEFRSLTSEDSAVYYCARRGYYGVDYWGQGTTLTVSS
VL: NIVMTQSPKSMSMSVGERVTLNCKASENVGTYVSWYQQKPEQSPKLLIFGASNRYTGVPDRFIGSGFATDFTLTISSVQAEDLADYHCGQSYSYPYTFGGGTKLEIK
modifications: IgM constant regions; antibody sequence
inhibitory effect of sub-clone supernatants on LPS-induced release of TNFα from THP-1 cells: significantly interfere
